Experiment: yeast display, Sf9 membrane polyspecificity reagent, FACS + sequencing; frameworks hold sequencing errors
Method in brief: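 Galactose induction of a Saccharomyces cerevisiae BJ5465 synthetic nanobody display library ran 36–48 hours. The cells were then stained for 1 hour at 4 °C with 10% biotinylated, detergent-solubilized Sf9 membrane reagent, pulled down on streptavidin microbeads and FACS-sorted into low and high (top ~1%) gates on expression and reagent-binding fluorescence. Labels for polyreactivity follow the gate of origin.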

Sequence	polyreactivity (PSR sort gate)
QVQLVESGGGLVQAGGSLRLSCAASGITFGSYAMGGYRQAPGKERELVAAITRRGDNTYYADSVKGRFTISRDNAKNTVYLQMNSLKPEDTAVYYCNAAKGGRYPDYDYWGQGTQVTVSS	high polyreactivity
QVQLVESVGGLVQAGGSLRLSCAASGSIFTENAMGWYRQAPGKERELVATITITGSTNYADSVKGRFTISRDNAKNTFYLQMNSLKPEDTEVYYCNADLYIAFSASAYDYWGQGTQVTVSS	low polyreactivity
QVHLVESGGGLVQAGGSLRVSCAASGSIFPDNAMGWYTQAPGKERELVAAITFSGGRTYYADSVKGRFTISRDNAKNTVYLQMNSQKPEDTAVYYCATAKGVKLYRYPDYSGYYPYDYWGQGTQVTVSS	high polyreactivity
QVQLVESGGGLVQAGGSLRLSCAASGFTSHSYAMGWYRKAPGKERELVAAINGDGGSTYYADSVKGRFTISRDNAKNTLYLQMNSLKPEDTAVYYCAAETAYWYYWGQGSQVTVSS	high polyreactivity
QVQLEESGGGLVQAGGSLRLSCAASGRIFSRNARGWYRPSPGKERELVAASSSGGGSTYYADSVKGRFTISRDNAKNTVYLLMNSLKPEDTAVYYCAARTRITYDWGQGTQVTVSS	low polyreactivity
QDQLVESGGGIVQAGGSIRLSCAASGNTFGWYAMGWYRKAPGKERELVASISSSGSTNYADSVKGRFTISRDNAKNTVYLQMNSLKPEDTAVYYSNADLTQYLGPVYEYVYWGQGTQVTVSS	low polyreactivity
QVQLVESGGGLVQAGGSLRLSCAASGNIFYYNAMGWYRQAPGKETELVADITWSGGSTYYADSVKGRFTISRDNAKNTVDLQMNSLKPEDTAVYYCADETFGYHRGRIADDYEYWGQGTQVTVSS	low polyreactivity
QVQLVESGGGLVQAGGSLRLSCGASGSTFRLYALGWYRQAPGNEWAFVAAISFRGGSTYYADSVKGRFTISRDNAQNTVYLQMNSLKPEDTAVYYCAAEVGTGGVRTPRYEYWGQGTQVTVSS	high polyreactivity
QVQLVESGGGLVQAGGSLRLSCAASGRTFARYTMGWYRQAPGKERELVASITRGGSTYYADSVKGRFTISRDNAKNTVYLQMNSLKPEDTAVYYCAARFPQHNYWAMDYWGQGTQVTVSS	high polyreactivity
QVQLVESGGGLVQAGGSLRLSCAASGITIYEYAMGWYRQAPGKERELVAAITSGGTTNYADSVKGRFTISRDNAKNTVYLQMNSLKPEDTAVYYCAKDGGEGYDYWGQGTQVTVSS	low polyreactivity
QDQLVESGGGLVQAGGSLRLSCAASGTFRRYAMGWYRKAPGKERELVAAISSGGGSTYYADSVKGRFTISRDNAKNTVYLQMNSLKPEDTAVYDCAAANSYTFRYGSWGQGTQVTVSS	high polyreactivity
QVQLVESGGGLVQAGGSLRLSCAASGITFFGYAMGWYRQAPGKERELVATISRSGGSTSYADSVKGRFTISRDNAKNTVYLQMNSLKPEDTAVYYCNNRTPYLRPIMDYWGQGTQVTVSS	high polyreactivity
QVQLVESGGGLVQAGGSLRLSCAASGSIFGYYAMGWYRQAPGKERELVASISWSGTSTYYADSVKGRFTISRDNAKNTVYLQMNSLKPEDTAVYYCATKGLFTNSPLYVSAYDYWGQGTQVTVSS	low polyreactivity
QVQLVESCGGLVQAGGSLRLSCAASGSTFGYYAMGWYRQAPGKETELVAAISSRGGSTYYADSVKGRFTISRDNAKNTVYLQMNSLKPEDTADYYCAARGLFFRNRYGYWGQGTQVTVSS	high polyreactivity
QVQLVESGGGLVQAGGSLRLSCAASGFTFDYNPMGWYRQAPGKERELVAAISNTGDSTYYADSVKGRFTISRDNAKNTDYLQMNSLKPDDTAVYYCAADCLFDVYWEYDYWGQGTQVTVSS	low polyreactivity
QVQLVESGGGLVQAGGSLRLSCAASGRTFTRYAMGWYRQAPGKERELVAAISRSGGSTHYADSVKGRFTISRDKAKNTVYLQMNSLKPEDTAVYYCNAQQGRYWSAKGYDYWGQGTQVTVSS	high polyreactivity
QVQLVESGGGLVQAGGSLRLSCAASGSIFIWYSMGWYRQAPGKERELVASITYSAGRTYYADSVKGRFTISRDNAKNTVYLQMNSLKPEDTAVYYCAADSPYVYTLDSYGEGDYWGQGSQVTVSS	low polyreactivity
QVQLVESGGGLVQAGGSLRLSCAASVYAMGWYRQAPGKERELVAAITDSGSTNYADSVKGRFTISRDNAKNTVYLQMNSLKPEDNAVYYCNADPYYATGSWARLPLYQYDYWGQGTQVTVSS	low polyreactivity
QVQLVESGGGLVQAGGSLRLRCAASGRTFRYYAMGWYRQAPGKERELVAVINYRGGSTYYADSVKGRFTISRDNEKNTVYLQMNSLKPEDTAVYYCAAQYIGWHLYWYDYWGQGTQVTVSS	low polyreactivity
QVQLVESGGGLVHAGGSLRLSCAASGLTFAYNTMGWYRQAPGKEREFVASISSSGGNTYYADSVKGRFTISRDNAKNTVYVQMNSLKPEDTAVYFCAAKKKYHYVASYKRFEYWGQGTQVTVSS	low polyreactivity
QVQLVESGGGLVPAGGSLRLSCAASGNIYRYYVMGWYRQAPGKEREFVAAITSSGGSTYYADSVKGRFTISRDNAKNTVYLQMNSLKPEDTAVYYCAKDYWDPGWAEYDDWGQGTQVTVSS	low polyreactivity
QVQLVESGGGLVQAGGSLRLSCAASGSTFRGYAMGWYRQAPGKERELVAAIRFSGGRTYYADSVKGRFTISRDNAKNTVYLQMNSLKPEDTAVYYCAKDYRPGWTGTDFYYWGQGTQVTVSS	low polyreactivity

Sequence	polyreactivity (PSR sort gate)
QVQLVESGGGLVQAGGSLRLSCAASGSIFYWYAMGWYRPAPGKERELVAAITSSSGRTRYADSVKGRFTISRDNAKNTVYLQMNSLKPEDTAVYYCAAGRWGSYYTPRPYGYWGQGTQVTVSS	high polyreactivity
HVQLVESGGGLVQAGGSLRVSCAASGRTFWSYTMGWYRQAPGKERELVASITYRGGSTYYADSVKGRFTISRDNAKNTVYLQMNSQKPEDTAVYYCNARYKRYSYDYWGQGTQVTVTS	high polyreactivity
QVQLVESGGGLVQAGGSLRLSCAASGSTFSIYAMGWYRQAPGKERELVAAITSDGSTYYADSVKGRFTISRDNAKNTVYLQMNSLKPEDTAVYYCAADWWYGWVSYEYWGQGTQVTVSS	high polyreactivity
QVQLVESGGGLVQAGGSLRLSCAASGRIFYGNAMGWYRQAPGKERELVAAITRGVSTYYADSVKGRFTISRDNAKNTVYLQMNSLKPEDTAVYYCAKDRRVRMDSWGQGTQVTVSS	low polyreactivity
QVQLVESGGGLVQAGGSLRLSCAASGSTFGSNAMGWSRQAPGKERELVAAITYSGGRTYYADSVQGRFTISRDNAKNTVYLQMNSLKPEDPAVYYCAATFGFFYYQYDYWGQGTQVTVSS	low polyreactivity
QVQLVESGGGFVQAGGSLRLSCAATGSIFPQNAMGWYRQAPGKERELVASISSGGRTNYADSVKGRFTISRDYAKNTVYLQMNSLKPEDSAVYFCAKTRIRYKPLHFYYWGQGTQVTVSS	low polyreactivity
QVQLVESGGGLVQAGGSLRLSCAASGSTLAIYAMGCYRQAPGKERELVASISRVGSTNYADSVKGRFTISRDNAKNTVYLQMNSRIPEDTAVYYCAARRWSYVILRAYYYWGQGTQETVSS	high polyreactivity
QVQLVESGGGLVQAGGSLRLSCAASGYTFSRYAMGWYRQAPGKERELVAAITGRGGSTYYADSVKGRFTISRDNAKNTVYLQMNSLKPEDTAVYYCAAPFGWRPLPISKVTSDYWGQGTQVTVSS	high polyreactivity
QVQLVESVGGLVQAGGSLSLSSAASGRTFGNYAMGWYRQAPGKERELVADITRRGGSTSYADSVKGRFTISRDNAKNTVYLQMTSLKTEDTAVYYCNKAAEGSSHYDYWGLGTQVTVSS	low polyreactivity
QVQLVESGGGLVQAGGSLRLSCAASGSIFSSYTMGWYRPAPGKERELLAAISSTGSTYYADSVKGRFTISRDNAKNTVYLQMNSLKPEDTAVYYCAARGWYWQQYKGHTRYDYWGQGTQVTVSS	high polyreactivity
QVQLVESGGGLVQAGGSLRLSCAASGSNSFLYTMRWYRQAPGKERELVAAITGSTASTYYADSVKGRFTISRDNAKNTVYLQMNSLKPEDSAVYYWAAYWYAEGYWVSRDYWGQGTQVTVSS	low polyreactivity
QVQLVESGGGLVQAGGSLRLSCAASGRTFIGNALGWYRQAPGKERELVASITRSGGSTYYADSVKGRFTISRDNAKNTVYLQMNSLKPEDTAVYYCAARVYTYYYDLHKRYYWGQGTQVTVSS	high polyreactivity
QVQLVESGGGLVQAGGSLRLSCSASGFTFDSYAMGWYRQAPGKERELVAAITSDGSTYYADSVKGRFTISRDNAKNTVYLQMNSLKPEDTAVYYCAADGRYFRAVFRLYDYWGQGTQVTVSS	low polyreactivity
QVQLVESGGGLVQAGGSLRLSCAASGSTFDPYAMGWYRQAPGKERELVATITYSGGRTYYADSVKGRFTISRDNAKNTVYLQMNSLKPEDTAVYYCAARVYTHYREFDYWGQGTQVTVSS	low polyreactivity
QVQLVESGGGLVQAGGSLRLSCAASGSTFAYYAMGWYRQAPGKERELVAAITSSGGSTYYADSVKGRFTISRDKAKNTVYLQMNSLKPEDTAVYYCNARYRRKSWRPFDYWGQGTQVTVSS	high polyreactivity
QVHLVESGGGLVQAGGSLRLSCAASGSTIRFNAMGWYRQAPGKERELVAAISGSGGSTYYADSVKGRFTISRDNAKKTVYLQMNSLKPEDTAVYYCAASASSRSYFKSYYWGQGTQVTVSS	high polyreactivity
QVQLVESGGGLVQAGGSLRLSCAASGSIIDLNAMGWYRQAPGKERDLVAAISSGGGTYYADSVKGRFTISRDNAKNNVYLQMNSLKPEDTAVYYCAAIGYRVYRYYRGRTYDYWGQGTQVTVSS	high polyreactivity
QVQLVESGGGVVQAGGSLRLSCAASGSTSGIYAMGWYRQAPGKERELVAAIDTYGGSTYADSVKGRFTISRDNAKNTVYLQMNSVKPEDTAVYYCAKPFSSNSWSHGYCGQGTQVTVSS	low polyreactivity
QVQLVESGGGLVQAGGSLRLSCAASGFTFNSYAMGWYRQAPGKEREFVAAISRSGSNTNYADSVKGRFTISRDNAKNTVYLEMNSLKPEDTAVYYCAARVSSVTRSGFGYWGEGTQVTVSS	high polyreactivity
QVQLVESGGGLVQAGGSLRLSCAASGSTFVYNAMGRYRQAPVKERELVAAISSGGSTYYADSVKGRFTISRDNAKNTVYLQMNSLKPEATAVYYCNARGSWRRDKYGTYYRYDYWGQGTQVTVSS	high polyreactivity
QVQLVESGGGLVQAGGSLRLSCAASGITFVRYAKGWYRHAPGKEREFVARISRSGASTYYADSVKGRFTISRDNAKNTVYLQMNSLKPEDTAVYYCNAVPGGSRFDYWGQGTQVTVSS	high polyreactivity
